Test results reported in patent US20220195052A1 (Biogen, published 2022).
Substitutions are numbered along the chain they refer to.

B1: Exemplary Antibody 4 (antibody, V domains shown)
VH: QVQLVESGGGLVQPGGSLRLSCAASGFTFTSYYMHWVRQAPGQGLEWMGIINPSGGSTSYAQKFQGRVTMTRDTSTSTVYMELSSLRSEDTAVYYCARQQRHRRDYDYYYGMDVWGQGTTVTVSS
VL: EIVLTQSPGTLSLSPGERATLSCRASQSVSSDYLAWYQQKPGQAPRLLIYGASRRATGIPDRFSGSGSGTDFTLTISRLEPEDFAVYYCQQAYSLPPTFGGGTKVEIK
notes: expressed in yeast (Adimab platform) and purified on protein A; also called Ex. Ab 4
B2: Exemplary Antibody 19 (antibody, V domains shown)
VH: QVQLVESGGGVVQPGRSLRLSCAASGFTFSSYGMHWVRQAPGKGLEWVAVISYDGSNKYYADSVKGRFTISRDNSKNTLYLQMNSLRAEDTAVYYCARGGPTRGDGTRVYYYGMDVWGQGTTVTVSS
VL: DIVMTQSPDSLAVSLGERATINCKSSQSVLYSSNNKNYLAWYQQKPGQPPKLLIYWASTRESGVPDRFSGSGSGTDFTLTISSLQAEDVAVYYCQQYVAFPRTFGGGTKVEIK
notes: expressed in yeast (Adimab platform) and purified on protein A; also called Ex. Ab 19
B3: Exemplary Antibody 17 (antibody, V domains shown)
VH: EVQLVQSGAEVKKPGESLKISCKGSGYSFTSYWIGWVRQMPGKGLEWMGIIYPGDSDTRYSPSFQGQVTISADKSISTAYLQWSSLKASDTAMYYCARGPRSRGDGPSNYYYMDVWGQGTLVTVSS
VL: DIQMTQSPSTLSASVGDRVTITCRASQSISSWLAWYQQKPGKAPKLLIYKASSLESGVPSRFSGSGSGTEFTLTISSLQPDDFATYYCQQYRPLPPTFGGGTKVEIK
notes: expressed in yeast (Adimab platform) and purified on protein A; also called Ex. Ab 17
B4: Exemplary Antibody 18 (antibody, V domains shown)
VH: QVQLVQSGAEVKKPGASVKVSCKASGYTFRSFYMHWVRQAPGQGLEWMGVINPSLGSTGYAQKFQGRVTMTRDTSTSTVYMELSSLRSEDTAVYYCARETNYYRGGPAFDIWGQGTMVTVSS
VL: not shown
notes: expressed in yeast (Adimab platform) and purified on protein A; also called Ex. Ab 18
B5: Exemplary Antibody 6 (antibody, V domains shown)
VH: QVQLVESGGGLVKPGGSLRLSCAASGFTFSDYYMSWIRQAPGKGLEWVSYISSSGSTIYYADSVKGRFTISRDNAKNSLYLQMNSLRAEDTAVYYCARGGRNRGDSSLSGIDVWGQGTTVTVSS
VL: DIQMTQSPSSLSASVGDRVTITCRASQSINSYLNWYQQKPGKAPKLLIYAASSLQSGVPSRFSGSGSGTDFTLTISSLQPEDFATYYCQQQYSDITFGGGTKVEIK
notes: expressed in yeast (Adimab platform) and purified on protein A; also called Ex. Ab 6
B6: Exemplary Antibody 13 (antibody, V domains shown)
VH: B5 VH with R101P, N102S, S106A, S107L, L108A, S109E, G110Y, I111F, D112Q, V113H
VL: EIVMTQSPATLSVSPGERATLSCRASQSVSSNLAWYQQKPGQAPRLLIYGASTRATGIPARFSGSGSGTEFTLTISSLQSEDFAVYYCQQLTNHPPIAFGGGTKVEIK
notes: expressed in yeast (Adimab platform) and purified on protein A; also called Ex. Ab 13
B7: Exemplary Antibody 7 (antibody, V domains shown)
VH: B5 VH with R101P, N102S, S106A, S107L, L108A, S109E, G110Y, I111F, D112Q, V113H
VL: B6 VL with T92V, H94Y, A98T
notes: expressed in yeast (Adimab platform) and purified on protein A; also called Ex. Ab 7
B8: Exemplary Antibody 20 (antibody, V domains shown)
VH: B5 VH with R101P, N102S, S106A, S107L, L108A, S109E, G110Y, I111F, D112Q, V113H
VL: EIVLTQSPATLSLSPGERATLSCRASQSVSRYLAWYQQKPGQAPRLLIYDASNRATGIPARFSGSGSGTDFTLTISSLEPEDFAVYYCQQLSLHPPYTFGGGTKVEIK
notes: expressed in yeast (Adimab platform) and purified on protein A; also called Ex. Ab 20
B9: Exemplary Antibody 14 (antibody, V domains shown)
VH: QVQLVESGGGLVKPGGSLRLSCAASGFTFSDYYMSWIRQAPGKGLEWVSYISSSGSTIYYADSVKGRFTISRDNAKNSLYLQMNSLRAEDTAVYYCARERGNRGDTPRYYYMDVWGKGTTVTVSS
VL: DIQMTQSPSSLSASVGDRVTITCRASQSISRYLNWYQQKPGKAPKLLIYAASSLQSGVPSRFSGSGSGTDFTLTISSLQPEDFATYYCQQSLVTPFTFGGGTKVEIK
notes: expressed in yeast (Adimab platform) and purified on protein A; also called Ex. Ab 14
B10: Exemplary Antibody 5 (antibody, V domains shown)
VH: B2 VH with Q1E, S30K, S31Y, V50S, S52W, Y59K
VL: EIVMTQSPATLSVSPGERATLSCRASQSVSSNLAWYQQKPGQAPRLLIYSASTRATGIPARFSGSGSGTEFTLTISSLQSEDFAVYYCQQYYHHPFTFGGGTKVEIK
notes: expressed in yeast (Adimab platform) and purified on protein A; also called Ex. Ab 5

biological target: T1, mouse αvβ1 integrin on BLO-11 mouse skeletal muscle fibroblasts (mouse, UniProt P43406 31-1044; P09055 21-798); test: flow cytometry on BLO-11 mouse skeletal muscle fibroblasts
T1 construct: whole, on cells; the cells carry other integrins as well; also called BLO-11 (murine fibroblast cells)
T1 sequence (P43406 31-1044, chain 1 of 2): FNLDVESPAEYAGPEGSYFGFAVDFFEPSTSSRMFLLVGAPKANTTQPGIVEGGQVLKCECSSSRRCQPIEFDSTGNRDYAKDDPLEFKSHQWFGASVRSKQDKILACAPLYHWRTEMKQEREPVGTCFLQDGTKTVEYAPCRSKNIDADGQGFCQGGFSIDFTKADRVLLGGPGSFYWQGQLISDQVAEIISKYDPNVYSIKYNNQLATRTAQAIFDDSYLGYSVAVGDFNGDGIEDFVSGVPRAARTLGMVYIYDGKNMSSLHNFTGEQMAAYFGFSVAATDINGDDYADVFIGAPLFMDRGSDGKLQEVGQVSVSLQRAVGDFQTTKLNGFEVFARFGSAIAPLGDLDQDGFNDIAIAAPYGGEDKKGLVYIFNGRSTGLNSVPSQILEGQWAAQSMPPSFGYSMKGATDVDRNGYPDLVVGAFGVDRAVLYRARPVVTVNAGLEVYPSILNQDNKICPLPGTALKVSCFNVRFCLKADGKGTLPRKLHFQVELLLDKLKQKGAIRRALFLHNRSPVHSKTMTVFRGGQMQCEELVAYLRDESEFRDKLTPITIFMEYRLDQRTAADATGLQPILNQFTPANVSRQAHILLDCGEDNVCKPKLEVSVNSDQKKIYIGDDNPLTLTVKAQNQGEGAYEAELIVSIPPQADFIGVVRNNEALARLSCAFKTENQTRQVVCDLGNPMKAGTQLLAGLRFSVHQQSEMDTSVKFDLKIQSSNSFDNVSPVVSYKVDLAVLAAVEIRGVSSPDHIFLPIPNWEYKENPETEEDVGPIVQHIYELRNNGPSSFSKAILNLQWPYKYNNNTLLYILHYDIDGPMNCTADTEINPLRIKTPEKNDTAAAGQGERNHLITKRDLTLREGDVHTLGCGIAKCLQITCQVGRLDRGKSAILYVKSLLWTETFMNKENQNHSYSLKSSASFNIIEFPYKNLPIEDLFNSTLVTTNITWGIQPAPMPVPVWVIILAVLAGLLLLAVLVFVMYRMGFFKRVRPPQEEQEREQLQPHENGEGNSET
T1 sequence (P09055 21-798, chain 2 of 2): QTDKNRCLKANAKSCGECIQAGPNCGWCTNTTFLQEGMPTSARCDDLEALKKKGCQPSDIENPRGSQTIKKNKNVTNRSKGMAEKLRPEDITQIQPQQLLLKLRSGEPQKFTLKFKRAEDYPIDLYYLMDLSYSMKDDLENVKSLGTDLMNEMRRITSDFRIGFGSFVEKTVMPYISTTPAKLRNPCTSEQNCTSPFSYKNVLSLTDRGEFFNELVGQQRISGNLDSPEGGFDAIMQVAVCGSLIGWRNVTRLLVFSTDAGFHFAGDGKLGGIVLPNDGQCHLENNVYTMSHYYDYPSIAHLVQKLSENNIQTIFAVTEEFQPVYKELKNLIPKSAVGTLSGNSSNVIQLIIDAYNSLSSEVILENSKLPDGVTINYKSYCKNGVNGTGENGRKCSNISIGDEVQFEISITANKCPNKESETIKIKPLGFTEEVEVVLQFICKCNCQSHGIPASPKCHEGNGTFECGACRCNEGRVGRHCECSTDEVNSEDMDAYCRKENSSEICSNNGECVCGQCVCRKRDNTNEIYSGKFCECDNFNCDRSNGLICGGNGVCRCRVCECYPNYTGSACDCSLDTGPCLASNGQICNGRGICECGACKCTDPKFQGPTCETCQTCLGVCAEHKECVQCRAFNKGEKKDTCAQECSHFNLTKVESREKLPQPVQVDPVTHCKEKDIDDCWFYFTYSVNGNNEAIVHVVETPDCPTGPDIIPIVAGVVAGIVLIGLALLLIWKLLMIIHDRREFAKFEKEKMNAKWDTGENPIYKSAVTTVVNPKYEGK
Experimental: MRC9 cells were obtained from Sigma (#85020202) and maintained in EMEM (ATCC, #30-2003) supplemented with 10% Fetal Bovine Serum (FBS from Gibco, #16000-077). BLO-11 cells were obtained from ATCC (#CCL-198) and maintained in DMEM (ATCC, #30-2002) supplemented with 10% FBS. Cells were harvested by incubating with cell dissociation buffer (Gibco, #13150-016) at 37° C. for 10 min and then washed with FACS buffer containing CaCl₂) and MgCl₂ (FACS⁺⁺ buffer; PBS+1% BSA+1 mM CaCl₂)+1 mM MgCl₂). All staining and wash steps were performed at 4° C. in FACS⁺⁺ buffer. In a 96 well U bottom plate, 0.75×10⁶ cells per well were plated and then spun down to remove supernatant. Cells were then resuspended in serially diluted primary antibody and incubated for 30 min. After incubation, cells were washed twice and then incubated with α-human IgG Alexa Fluor 647 (Invitrogen, #A21445) secondary antibody for another 30 min. Cells were then washed twice and fixed with 1% PFA diluted in PBS for 30 min, followed by a final wash. Fluorescence activated cell sorting (FACS) analysis was performed using a five-laser BD LSR-II flow cytometer (BD Biosciences, San Jose, Calif., USA), and data were analyzed using FlowJo software v9 (Treestar, Ashland, Oreg., USA) and transferred into analysis and graphic software including GraphPad Prism 7 (La Jolla, Calif., USA).

| Binder | binding result |
| --- | --- |
| B1 | binds |
| B2 | binds |
| B3 | binds |

biological target: T2, human αvβ1 integrin on cells (human, UniProt P06756 31-1048; P05556 21-798); test: flow cytometry on stably transfected cells, antibody titration (bivalent EC50)
T2 construct: also called stably transfected human αvβ1 cells; αvβ1 on MRC9 human lung fibroblasts
T2 sequence (P06756 31-1048 limits assumed, chain 1 of 2): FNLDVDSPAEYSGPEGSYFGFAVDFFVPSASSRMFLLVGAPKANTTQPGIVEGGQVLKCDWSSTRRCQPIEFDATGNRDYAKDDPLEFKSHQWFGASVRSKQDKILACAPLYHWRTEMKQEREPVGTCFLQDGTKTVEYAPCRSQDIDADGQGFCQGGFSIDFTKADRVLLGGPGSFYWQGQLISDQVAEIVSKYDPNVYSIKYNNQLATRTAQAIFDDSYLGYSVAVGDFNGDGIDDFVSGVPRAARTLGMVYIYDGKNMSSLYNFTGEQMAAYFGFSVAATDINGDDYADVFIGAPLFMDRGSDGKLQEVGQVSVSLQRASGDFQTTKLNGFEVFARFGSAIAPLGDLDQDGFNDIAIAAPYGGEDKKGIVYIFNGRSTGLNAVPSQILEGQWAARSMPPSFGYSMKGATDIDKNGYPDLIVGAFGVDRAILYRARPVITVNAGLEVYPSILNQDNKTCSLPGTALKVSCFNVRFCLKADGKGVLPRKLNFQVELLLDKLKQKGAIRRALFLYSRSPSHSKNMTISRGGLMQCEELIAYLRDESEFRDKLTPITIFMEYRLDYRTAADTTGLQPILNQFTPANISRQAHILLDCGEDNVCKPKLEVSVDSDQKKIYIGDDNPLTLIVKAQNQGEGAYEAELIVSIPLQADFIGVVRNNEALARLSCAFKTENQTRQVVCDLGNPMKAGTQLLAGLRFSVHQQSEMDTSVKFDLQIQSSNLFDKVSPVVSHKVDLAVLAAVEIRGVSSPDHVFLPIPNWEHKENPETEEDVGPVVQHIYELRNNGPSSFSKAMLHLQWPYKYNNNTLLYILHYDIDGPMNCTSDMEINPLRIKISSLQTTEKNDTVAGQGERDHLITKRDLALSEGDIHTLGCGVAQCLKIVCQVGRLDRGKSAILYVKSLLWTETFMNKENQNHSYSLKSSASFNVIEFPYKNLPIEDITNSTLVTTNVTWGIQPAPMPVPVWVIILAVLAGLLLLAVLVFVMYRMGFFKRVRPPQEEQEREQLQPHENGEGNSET
T2 sequence (P05556 21-798 limits assumed, chain 2 of 2): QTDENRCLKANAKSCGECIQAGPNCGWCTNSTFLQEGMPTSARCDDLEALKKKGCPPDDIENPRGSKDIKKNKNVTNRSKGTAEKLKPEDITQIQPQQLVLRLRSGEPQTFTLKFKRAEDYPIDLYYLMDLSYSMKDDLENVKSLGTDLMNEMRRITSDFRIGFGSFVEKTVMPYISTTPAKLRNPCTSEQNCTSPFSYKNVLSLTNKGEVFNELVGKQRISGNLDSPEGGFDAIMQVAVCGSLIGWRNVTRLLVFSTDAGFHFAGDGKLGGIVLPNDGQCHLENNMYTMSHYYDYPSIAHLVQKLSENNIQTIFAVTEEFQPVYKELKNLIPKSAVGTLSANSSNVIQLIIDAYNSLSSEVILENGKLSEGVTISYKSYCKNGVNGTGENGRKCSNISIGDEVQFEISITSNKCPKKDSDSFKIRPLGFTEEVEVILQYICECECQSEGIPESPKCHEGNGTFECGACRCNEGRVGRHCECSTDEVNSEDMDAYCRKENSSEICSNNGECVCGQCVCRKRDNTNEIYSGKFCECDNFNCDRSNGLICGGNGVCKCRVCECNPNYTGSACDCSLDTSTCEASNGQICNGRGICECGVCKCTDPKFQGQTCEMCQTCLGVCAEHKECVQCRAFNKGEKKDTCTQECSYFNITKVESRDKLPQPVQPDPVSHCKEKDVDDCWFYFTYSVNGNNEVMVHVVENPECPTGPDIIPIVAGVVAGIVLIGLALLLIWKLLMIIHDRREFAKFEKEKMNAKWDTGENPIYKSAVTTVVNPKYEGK
Experimental: (§1) Cells were washed in the appropriate assay buffer three times by pelleting at 1500 RPM for 3 minutes and then pouring out supernatant. Assay buffer for this experiment was TBS containing 1 mg/mL BSA and supplemented with either 1 mM Ca+1 mM Mg or with 1 mM Mn. Cells were then resuspended in assay buffer at a concentration of 1.0-1.5×10⁶ cells/mL and transferred to wells of a 96-well assay plate (Corning 3799) in 50 μL aliquots. Plates were then centrifuged at 2000 RPM for 3 minutes to pellet cells and supernatant was flicked out. Cells were resuspended in 100 μL of antibody sample and incubated on ice for 45 to 60 minutes.
(§2) Plates were washed three times in 150 μL assay buffer by pelleting at 2000 RPM for 3 minutes and then flicking out the supernatant. Cells were then resuspended in 50 μL of phycoerythrin-conjugated goat anti-human Fab secondary reagent and incubated on ice in the dark for 30 minutes. Plates were washed three times in 150 μL assay buffer by pelleting at 2000 RPM for 3 minutes and then flicking out the supernatant. Cells were then resuspended in 200 μL of assay buffer+1% polyformaldehyde (PFA) for 30 minutes on ice to fix the cells. Cells were pelleted to remove the PFA and then resuspended in 150 μL assay buffer.

| Binder | EC50 [nM] |
| --- | --- |
| B4 | 2 |
| B5 | 0.8 |
| B1 | 4.9 |
| B6 | 0.6 |
| B7 | 1.2 |
| B8 | 0.4 |
| B9 | 0.8 |
| B2 | 2.8 |
| B3 | 1.4 |

biological target: T3, αvβ3 integrin on stably transfected cells (human, UniProt P05106 27-788); test: as above
T3 construct: whole, on cells
Experimental: as §1, §2

| Binder | EC50 [nM] |
| --- | --- |
| B4 | 13 |
| B3 | 3.3 |

biological target: T4, αvβ5 integrin on stably transfected cells (human, UniProt P18084 24-799); test: as above
T4 construct: whole, on cells
Experimental: as §1, §2

| Binder | EC50 [nM] |
| --- | --- |
| B4 | 11 |

biological target: αvβ6 integrin on stably transfected cells (human, UniProt P06756 31-1048; P18564 22-788); test: as above
Experimental: as §1, §2

| Binder | EC50 [nM] |
| --- | --- |
| B4 | 16 |

biological target: T5, αvβ8 integrin on stably transfected cells (human, UniProt P26012 43-769); test: as above
T5 construct: whole, on cells
T5 sequence (chain, as listed by the source, chain 1 of 2): as the sequence (P06756 31-1048 limits assumed, chain 1 of 2) above
T5 sequence (P26012 43-769, chain 2 of 2): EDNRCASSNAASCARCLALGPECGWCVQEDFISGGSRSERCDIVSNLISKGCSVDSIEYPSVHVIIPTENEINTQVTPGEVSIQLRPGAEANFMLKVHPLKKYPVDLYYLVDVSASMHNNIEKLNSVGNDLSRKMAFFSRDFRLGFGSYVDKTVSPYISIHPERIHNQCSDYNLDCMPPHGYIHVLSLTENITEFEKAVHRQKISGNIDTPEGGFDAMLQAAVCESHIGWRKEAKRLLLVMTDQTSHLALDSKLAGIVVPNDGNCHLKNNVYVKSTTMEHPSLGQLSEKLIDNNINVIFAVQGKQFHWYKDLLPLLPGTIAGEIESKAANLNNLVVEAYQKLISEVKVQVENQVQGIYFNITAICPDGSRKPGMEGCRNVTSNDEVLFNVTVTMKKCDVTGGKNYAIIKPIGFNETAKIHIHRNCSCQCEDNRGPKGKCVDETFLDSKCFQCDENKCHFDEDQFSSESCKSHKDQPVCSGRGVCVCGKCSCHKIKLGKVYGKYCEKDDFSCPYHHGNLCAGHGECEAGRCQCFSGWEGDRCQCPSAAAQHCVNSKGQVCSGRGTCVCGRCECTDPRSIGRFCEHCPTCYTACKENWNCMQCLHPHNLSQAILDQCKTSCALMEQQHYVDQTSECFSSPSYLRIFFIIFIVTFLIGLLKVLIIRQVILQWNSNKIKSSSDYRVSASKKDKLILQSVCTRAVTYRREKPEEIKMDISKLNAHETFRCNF
Experimental: as §1, §2

| Binder | EC50 [nM] |
| --- | --- |
| B4 | 10 |
| B2 | 2.8 |

biological target: T2, human αvβ1 integrin on cells; test: inhibition of adhesion of BCECF-labelled αvβ1-transfected cells to plate-coated LAP
Experimental: (§3) The plate was washed twice with PBS (200 μl/well), blocked with 1% BSA in PBS (200 μl/well) for 1 h at room temperature, and washed thrice with 200 μl/well of assay buffer (TBS, 2 mM Glucose, 0.1% BSA, 1 mM CaCl₂) and 1 mM MgCl₂, pH 7.4). Stably transfected human αvβ1 cells were removed from cell suspension and centrifuged at 1100 rpm for 5 mins. The pellet was resuspended in RPMI 1640, 1% BSA buffer and incubated with 2 μM fluorescent dye (BCECF, Molecular Probes, Eugene, Oreg.) in a 37° C. incubator for 30 min. The labeled cells were washed twice by centrifugation at 1100 rpm for 5 min and resuspended in assay buffer to 0.8×10⁶ cells/ml. To individual wells of the washed plate were added 50 μl of purified antibody and 50 μl of human αvβ1 cells labeled with BCECF, and the plate was incubated at room temperature in dark for 1 h. The plate was washed 3-4 times with assay buffer (200 μl/well), and the fluorescence due to adhered cells on the plate was recorded at 485 nm (Excitation) and 538 nm (Emission) wavelength. Percent binding was determined by comparing the fluorescence prior to the final wash step (i.e. total cells added) to that after washing (i.e. bound cells).

| Binder | IC50 [nM] |
| --- | --- |
| B5 | 9 |
| B1 | 2.8 |
| B6 | 1.3 |
| B7 | 4.3 |
| B8 | 1 |
| B9 | 2.2 |
| B2 | 1.4 |
| B3 | < 1 |

biological target: T6, α4β1 integrin on cells (human, UniProt P13612 34-1032); test: Jurkat cell adhesion to VCAM-Ig, confirming the absence of binding to α4β1 cells in Example 3
T6 construct: whole, on cells; also called α4β1 on Jurkat cells; stably transfected α4β1 cells
Experimental: as §3, with “pH 7.4). Jurkat cells were” for “pH 7.4). Stably transfected human αvβ1 cells were”, “centrifuged at 1500 rpm for” for “centrifuged at 1100 rpm for”, “μl of Jurkat cells labeled” for “μl of human αvβ1 cells labeled”
This includes examples for a pan-αv commercial antibody (L230), a pan-β1 commercial antibody (mAb13), a published α4-specific antibody (natalizumab), and the c8 small molecule compound previously published as αvβ1 specific (Reed N I et al, Sci Transl Med, 7(288): 288ra79 (2015)).

| Binder | binding result |
| --- | --- |
| B1 | no binding |
| B2 | no binding |
| B3 | no binding |
| B10 | no binding |

biological target: T5, αvβ8 integrin on stably transfected …; test: flow cytometry on stably transfected cells; weak binding observed but incomplete fit to calculate EC50
Experimental: as §1, §2

| Binder | binding result |
| --- | --- |
| B8 | binds |
